Experimental data: the supplement of paper PMC9112550, “Optimization of the antimicrobial peptide Bac7 by deep mutational scanning” (BMC Biology, 2022)

System: Escherichia coli TOP10
Experiment: shrunken log2 fold change of peptide-encoding DNA abundance (4.5 h post-induction vs induction); higher = less antimicrobial activity (less host growth inhibition)
Conditions: time post-induction: 4.5 h; library: site-saturation at positions 5, 18, 19, 20
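Also: peptides expressed intracellularly from a pBAD plasmid library in pooled LB shake-flask culture, induced with 0.3% L-arabinose, DNA abundance read by NGS, three biological replicates, DESeq2 with apeglm shrinkage.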

Sequence | shrunken log2 fold change
RRIRIRPPRLPRPRPRPETCPRP | 0.00626
RRIRARPPRLPRPRPRPCHMPRP | -0.0816
RRIRDRPPRLPRPRPRPHKNPRP | -0.296
RRIRIRPPRLPRPRPRPLGYPRP | -0.303
RRIRARPPRLPRPRPRPLNQPRP | -0.0348
RRIRARPPRLPRPRPRPQVVPRP | -0.0726
RRIRTRPPRLPRPRPRPGQNPRP | 0.138
RRIRDRPPRLPRPRPRPYNGPRP | -0.0516
RRIRGRPPRLPRPRPRPKADPRP | 1.29
RRIRYRPPRLPRPRPRPWVGPRP | -0.352
RRIRQRPPRLPRPRPRPWLVPRP | -0.0624
RRIRWRPPRLPRPRPRPPDSPRP | 0.0564
RRIRRRPPRLPRPRPRPNKPPRP | 0.101
RRIRYRPPRLPRPRPRPEWWPRP | -0.0484
RRIRERPPRLPRPRPRPVFMPRP | -0.356
RRIRSRPPRLPRPRPRPAQFPRP | -0.114
RRIRGRPPRLPRPRPRPFEEPRP | 0.231
RRIRCRPPRLPRPRPRPPQIPRP | 0.328
RRIRNRPPRLPRPRPRPCTMPRP | -0.199
RRIRKRPPRLPRPRPRPPCLPRP | 0.123
RRIRMRPPRLPRPRPRPQGVPRP | -0.0179
RRIRWRPPRLPRPRPRPMFEPRP | -0.0796
RRIRARPPRLPRPRPRPENAPRP | 0.687
RRIRQRPPRLPRPRPRPNDGPRP | -0.000777
RRIRARPPRLPRPRPRPVPHPRP | 0.0133

Sequence | shrunken log2 fold change
RRIRFRPPRLPRPRPRPGGEPRP | 0.271
RRIRLRPPRLPRPRPRPLARPRP | 0.615
RRIRQRPPRLPRPRPRPEHKPRP | -0.00178
RRIRGRPPRLPRPRPRPSYTPRP | 0.307
RRIRMRPPRLPRPRPRPLTYPRP | -0.0782
RRIRTRPPRLPRPRPRPGCHPRP | -0.136
RRIRDRPPRLPRPRPRPPPCPRP | 0.443
RRIRNRPPRLPRPRPRPKMDPRP | 0.0178
RRIRARPPRLPRPRPRPPSNPRP | 0.195
RRIRERPPRLPRPRPRPACQPRP | 0.146
RRIRCRPPRLPRPRPRPRQSPRP | 0.139
RRIRMRPPRLPRPRPRPKEGPRP | -0.01
RRIRPRPPRLPRPRPRPTSFPRP | 0.0509
RRIRYRPPRLPRPRPRPWYQPRP | -3.18
RRIRVRPPRLPRPRPRPVPFPRP | -0.115
RRIRIRPPRLPRPRPRPELKPRP | 0.224
RRIRMRPPRLPRPRPRPQTLPRP | 0.0245
RRIRSRPPRLPRPRPRPSAFPRP | -0.0159
RRIRARPPRLPRPRPRPFMPPRP | -0.149
RRIRWRPPRLPRPRPRPVVSPRP | 0.0155
RRIRVRPPRLPRPRPRPCYPPRP | -0.327
RRIRQRPPRLPRPRPRPQMTPRP | -0.106
RRIRDRPPRLPRPRPRPTDAPRP | -0.036
RRIRVRPPRLPRPRPRPANRPRP | -0.179
RRIRFRPPRLPRPRPRPQDYPRP | 0.0577

Sequence | shrunken log2 fold change
RRIRYRPPRLPRPRPRPGQPPRP | 0.0516
RRIRGRPPRLPRPRPRPRHGPRP | 0.264
RRIRRRPPRLPRPRPRPFRSPRP | -0.0534
RRIRNRPPRLPRPRPRPWWVPRP | -0.226
RRIRSRPPRLPRPRPRPSGKPRP | -0.202
RRIRIRPPRLPRPRPRPDMEPRP | 0.0763
RRIRHRPPRLPRPRPRPHWDPRP | -0.557
RRIRQRPPRLPRPRPRPACQPRP | 0.15
RRIRDRPPRLPRPRPRPKESPRP | 0.277
RRIRSRPPRLPRPRPRPNGLPRP | -0.0247
RRIRQRPPRLPRPRPRPYEAPRP | -0.0514
RRIRSRPPRLPRPRPRPHMHPRP | -0.202
RRIRARPPRLPRPRPRPWIRPRP | -0.132
RRIRIRPPRLPRPRPRPGLWPRP | 0.0804
RRIRYRPPRLPRPRPRPKNKPRP | -0.444
RRIRNRPPRLPRPRPRPQFWPRP | 0.0339
RRIRRRPPRLPRPRPRPRIDPRP | -0.0185
RRIRWRPPRLPRPRPRPDSHPRP | -0.126
RRIRIRPPRLPRPRPRPRWSPRP | 0.0458
RRIRNRPPRLPRPRPRPPEAPRP | 0.0101
RRIRIRPPRLPRPRPRPRIYPRP | 0.00994
RRIRHRPPRLPRPRPRPCRVPRP | -0.242
RRIRRRPPRLPRPRPRPGRLPRP | 0.728
RRIRRRPPRLPRPRPRPQFIPRP | -0.387
RRIRTRPPRLPRPRPRPAWKPRP | 0.0317

Sequence | shrunken log2 fold change
RRIRPRPPRLPRPRPRPIMCPRP | -0.221
RRIRPRPPRLPRPRPRPIPFPRP | -0.0358
RRIRCRPPRLPRPRPRPEHEPRP | 0.188
RRIRFRPPRLPRPRPRPWNCPRP | -0.0434
RRIRARPPRLPRPRPRPYWFPRP | -0.775
RRIRGRPPRLPRPRPRPNIYPRP | -0.13
RRIRHRPPRLPRPRPRPCRQPRP | -0.035
RRIRDRPPRLPRPRPRPVTGPRP | 0.148
RRIRARPPRLPRPRPRPTFVPRP | 0.203
RRIRARPPRLPRPRPRPEDGPRP | 1.48
RRIRSRPPRLPRPRPRPLQPPRP | 0.474
RRIRRRPPRLPRPRPRPIAMPRP | 0.0579
RRIRYRPPRLPRPRPRPGYIPRP | -0.0964
RRIRCRPPRLPRPRPRPSHRPRP | -0.508
RRIRHRPPRLPRPRPRPCFCPRP | -0.226
RRIRERPPRLPRPRPRPAMPPRP | -0.0115
RRIRKRPPRLPRPRPRPYYTPRP | -0.34
RRIRVRPPRLPRPRPRPTWYPRP | -0.0971
RRIRKRPPRLPRPRPRPPVQPRP | 0.83
RRIRLRPPRLPRPRPRPDTEPRP | -0.0195
RRIRYRPPRLPRPRPRPQARPRP | -0.0547
RRIRHRPPRLPRPRPRPHLFPRP | -0.154
RRIRPRPPRLPRPRPRPIMVPRP | -0.158
RRIRSRPPRLPRPRPRPLGSPRP | 0.193
RRIRARPPRLPRPRPRPECHPRP | 1.38

Sequence | shrunken log2 fold change
RRIRTRPPRLPRPRPRPFFPPRP | 0.191
RRIRTRPPRLPRPRPRPHNNPRP | -0.894
RRIRPRPPRLPRPRPRPGWFPRP | 0.238
RRIRNRPPRLPRPRPRPTDEPRP | 0.0528
RRIRGRPPRLPRPRPRPRAPPRP | 1.05
RRIRRRPPRLPRPRPRPAETPRP | -0.0645
RRIRNRPPRLPRPRPRPNAFPRP | -0.126
RRIRTRPPRLPRPRPRPVLIPRP | 0.233
RRIRLRPPRLPRPRPRPMELPRP | -0.00973
RRIRDRPPRLPRPRPRPAHHPRP | 0.113
RRIRFRPPRLPRPRPRPVPFPRP | -0.102
RRIRNRPPRLPRPRPRPWCFPRP | -0.472
RRIRMRPPRLPRPRPRPYHNPRP | -0.47
RRIRNRPPRLPRPRPRPTLAPRP | 0.556
RRIRRRPPRLPRPRPRPEPHPRP | 0.315
RRIRKRPPRLPRPRPRPLMRPRP | 1.35
RRIRHRPPRLPRPRPRPFPPPRP | -0.228
RRIRKRPPRLPRPRPRPFEWPRP | -0.0618
RRIRNRPPRLPRPRPRPWVWPRP | -0.115
RRIRDRPPRLPRPRPRPYQFPRP | -0.0464
RRIRERPPRLPRPRPRPGYFPRP | -0.0348
RRIRYRPPRLPRPRPRPQYNPRP | -1.49
RRIRFRPPRLPRPRPRPVSPPRP | -0.172
RRIRERPPRLPRPRPRPGIWPRP | 0.139
RRIRWRPPRLPRPRPRPFQYPRP | -0.199

Sequence | shrunken log2 fold change
RRIRQRPPRLPRPRPRPDGPPRP | 0.0029
RRIRLRPPRLPRPRPRPEMDPRP | -0.059
RRIRGRPPRLPRPRPRPRQIPRP | 0.684
RRIRCRPPRLPRPRPRPHWVPRP | -0.0374
RRIRWRPPRLPRPRPRPCVIPRP | -0.059
RRIRNRPPRLPRPRPRPWKRPRP | -0.0326
RRIRSRPPRLPRPRPRPGKLPRP | -0.0662
RRIRSRPPRLPRPRPRPEMWPRP | 0.67
RRIRDRPPRLPRPRPRPHAPPRP | 0.144
RRIRPRPPRLPRPRPRPECIPRP | -0.0733
RRIRFRPPRLPRPRPRPFITPRP | -0.918
RRIRERPPRLPRPRPRPQHRPRP | 0.152
RRIRPRPPRLPRPRPRPNPQPRP | -0.0414
RRIRQRPPRLPRPRPRPGCCPRP | 0.202
RRIRLRPPRLPRPRPRPHGVPRP | -0.0127
RRIRVRPPRLPRPRPRPRACPRP | 0.274
RRIRRRPPRLPRPRPRPSLLPRP | 0.17
RRIRYRPPRLPRPRPRPQGQPRP | -0.262
RRIRERPPRLPRPRPRPVDIPRP | -0.105
RRIRDRPPRLPRPRPRPMQKPRP | 0.0229
RRIRKRPPRLPRPRPRPWGCPRP | 0.131
RRIRRRPPRLPRPRPRPGYRPRP | -0.119
RRIRFRPPRLPRPRPRPMKYPRP | -0.664
RRIRVRPPRLPRPRPRPFLYPRP | -0.728
RRIRERPPRLPRPRPRPCEVPRP | 0.028
